Measurements taken from US6476188 (ROCKEFELLER UNIVERSITY, dated 2002).
Changes are numbered by the printed parent chain.

T1: GST-PER 530-640 fusion protein (Drosophila, UniProt P07663 530-640)
T1 construct: range 530-640; Constructed as described in Saez and Young 1996 (cited); Immobilized on glutathione agarose beads; also called aa 530-640 of PER; not shown: Glutathione-S-transferase (GST) fusion partner
T1 sequence (looked up): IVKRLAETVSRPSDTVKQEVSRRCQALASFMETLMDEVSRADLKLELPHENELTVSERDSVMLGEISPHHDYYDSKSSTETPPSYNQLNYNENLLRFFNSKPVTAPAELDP

B1: DOUBLETIME protein (DBT), Drosophila, in vitro translated from dbt cDNA P12, 35S-labeled (enzyme)
chain: MELRVGNKYRLGRKIGSGSFGDIYLGTTINTGEEVAIKLECIRTKHPQLHIESKFYKTMQGGIGIPRIIWCGSEGDYNVMVMELLGPSLEDLFNFCSRRFSLKTVLLLADQMISRIDYIHSRDFIHRDIKPDNFLMGLGKKGNLVYIIDFGLAKKFRDARSLKHIPYRENKNLTGTARYASINTHLGIEQSRRDDLESLGYVLMYFNLGALPWQGLKAANKRQKYERISEKKLSTSIVVLCKGFPSEFVNYLNFCRQMHFDQRPDYCHLRKLFRNLFHRLGFTYDYVFDWNLLKFGGPRNPQAIQQAQDGADGQAGHDAVAAAAAVAAAAAASSHQQQQHKVNAALGGGGGSRAQQQLQGGQTLAMLGGNGGGNGSQLIGGNGLNMDDSMAATNSSRPPYDTPERRPSIRMRQGGGGGGGGVGVGGMQSGGGGGGVGNAK
notes: In vitro translated, 35S-labeled; about 46 kDa by SDS-PAGE; the open reading frame predicts 440 aa; also called Drosophila CK1ε
B2: recombinant wild-type hamster CK1ε with N-terminal S•Tag and His-Tag fusions, captured on S-protein agarose (enzyme)
chain: MELRVGNKYRLGRKIGSGSFGDIYLGANIASGEEVAIKLECVKTKHPQLHIESKFYKMMQGGVGIPSIKWCGAEGDYNVMVMELLGPSLEDLFNFCSRKFSLKTVLLLADQMISRIEYIHSKNFIHRDVKPDNFLMGLGKKGNLVYIIDFGLAKKYRDARTHQHIPYRENKNLTGTARYASINTHLGIEQSRRDDLESLGYVLMYFNLGSLPWQGLKAATKRQKYERISEKKMSTPIEVLCKGYPSEFSTYLNFCRSLRFDDKPDYSYLRQLFRNLFHRQGFSYDYVFDWNMLKFGAARNPEDVDRERREHEREERMGQLRGSATRALPPGPPTGATANRLRSAAEPVASTPASRIQQAGNTSPRAISRADRERKVSMRLHRGAPANVSSSDLTGRQEVSRISASQTSVPFDHLGK
notes: Full-length cDNA expressed in E. coli BL21(DE3)pLysS; The preparation holds both autophosphorylated and unphosphorylated forms; also called wild-type CK1ε; WT; not shown: N-terminal S•Tag (15 amino acids) and His-Tag fusion from the pET-30 LIC vector
B3: recombinant tau mutant hamster CK1ε (Arg178Cys) with N-terminal S•Tag and His-Tag fusions, captured on S-protein agarose (enzyme)
chain: B2 chain with R178C
notes: Full-length tau cDNA expressed in E. coli; Arg #178 of the wild-type protein is replaced by cysteine; also called tau CK1ε; tau mutant enzyme; not shown: N-terminal S•Tag (15 amino acids) and His-Tag fusion from the pET-30 LIC vector

Assays:
[1] = target: T1, GST-PER 530-640 fusion protein; assay: GST pull-down, 35S-labeled in vitro translated DBT, SDS-PAGE and autoradiography
Source text: (§1) The staining confirms that similar amounts of GST and GST-PER fusion proteins were used in the assay. Arrow indicates BSA present in all the washes. (Right) GST alone and the indicated GST-PER fusions were used to bind in vitro translated, ^35S-labeled DBT protein. Labeled DBT proteins that bound to the indicated GST-PER fusions were visualized by SDS-PAGE and autoradiography. […] For hs-gfp-dbt, GFP was fused to the amino terminus of DBT.

[2] = target: T2, GST (Glutathione-S-transferase) alone (UniProt P08515 1-218 = GST); assay: as above
T2 construct: Control in the pull-down assay
T2 sequence (P08515 whole entry): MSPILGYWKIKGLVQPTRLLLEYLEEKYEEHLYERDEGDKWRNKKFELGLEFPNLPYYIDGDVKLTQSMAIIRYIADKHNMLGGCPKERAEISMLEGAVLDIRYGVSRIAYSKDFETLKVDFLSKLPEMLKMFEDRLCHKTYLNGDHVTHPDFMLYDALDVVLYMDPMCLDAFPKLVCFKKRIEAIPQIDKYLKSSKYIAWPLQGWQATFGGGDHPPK
Source text: as §1

[3] = target: mouse PERIOD1 (mPER1), in vitro translated, 35S-methionine-labeled (mouse, UniProt O35973 1-1291, limits assumed); assay: in vitro binding, S-agarose-bound recombinant CK1ε with 35S-labeled in vitro translated mPER1
Sequence of mouse PERIOD1 (mPER1), in vitro translated, 35S-methionine-labeled (O35973 whole entry): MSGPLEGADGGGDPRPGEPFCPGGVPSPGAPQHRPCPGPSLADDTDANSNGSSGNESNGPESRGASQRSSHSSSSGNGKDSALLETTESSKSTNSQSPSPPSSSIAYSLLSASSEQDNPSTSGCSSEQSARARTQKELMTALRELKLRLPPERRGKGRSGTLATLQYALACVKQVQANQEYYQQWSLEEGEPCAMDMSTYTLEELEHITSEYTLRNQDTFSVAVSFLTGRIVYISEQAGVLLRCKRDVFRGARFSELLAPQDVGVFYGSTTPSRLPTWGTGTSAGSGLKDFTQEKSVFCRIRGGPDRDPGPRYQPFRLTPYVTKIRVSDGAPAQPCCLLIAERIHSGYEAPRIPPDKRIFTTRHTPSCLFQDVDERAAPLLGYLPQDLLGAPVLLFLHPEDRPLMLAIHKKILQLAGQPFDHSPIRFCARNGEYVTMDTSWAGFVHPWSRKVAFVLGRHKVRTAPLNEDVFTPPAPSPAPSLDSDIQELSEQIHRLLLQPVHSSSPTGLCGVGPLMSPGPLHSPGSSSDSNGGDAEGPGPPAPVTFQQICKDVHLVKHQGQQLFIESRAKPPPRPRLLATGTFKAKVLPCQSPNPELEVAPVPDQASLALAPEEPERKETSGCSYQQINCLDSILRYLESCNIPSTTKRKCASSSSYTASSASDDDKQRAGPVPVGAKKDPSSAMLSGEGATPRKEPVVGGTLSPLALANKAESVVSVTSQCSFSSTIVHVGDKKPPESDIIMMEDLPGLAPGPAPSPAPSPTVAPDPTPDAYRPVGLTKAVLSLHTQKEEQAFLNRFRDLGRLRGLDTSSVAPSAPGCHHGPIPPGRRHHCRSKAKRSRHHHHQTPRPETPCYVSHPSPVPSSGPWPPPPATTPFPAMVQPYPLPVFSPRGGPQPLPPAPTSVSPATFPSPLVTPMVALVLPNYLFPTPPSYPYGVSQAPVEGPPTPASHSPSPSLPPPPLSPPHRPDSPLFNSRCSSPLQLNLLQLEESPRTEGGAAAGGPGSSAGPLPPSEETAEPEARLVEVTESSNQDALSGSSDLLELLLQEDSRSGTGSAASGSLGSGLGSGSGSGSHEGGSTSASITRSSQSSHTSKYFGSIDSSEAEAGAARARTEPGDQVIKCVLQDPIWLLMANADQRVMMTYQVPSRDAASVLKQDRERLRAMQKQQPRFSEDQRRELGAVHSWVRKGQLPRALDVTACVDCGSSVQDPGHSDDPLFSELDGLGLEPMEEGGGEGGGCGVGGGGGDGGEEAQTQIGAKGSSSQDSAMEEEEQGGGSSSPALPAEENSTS
Method: (§2) Half of the bound beads were then added to a kinase reaction as described above and in Example 3 below, but without c-casein or phosvitin, and incubated at 37° C. for 5 minutes. […] Reactions were separated on 12% SDS-PAGE gels, dried and exposed to phosphor screens. Following exposure to detect both the ^35S and ^32P signals, dried gels were covered with two layers of exposed X-OMAT film to block the ^35S signal. […] PER signal is indicated by filled triangles.
(§3) Per binding studies: For binding assays, mPER1 and mPER2 were synthesized from cDNAs cloned in plasmids by coupled in vitro transcription/translation reactions using ^35S-methionine in a total reaction volume of 50 μl (TNT T7 Coupled Reticulocyte Lysate System, Promega). Recombinant CK1ε was purified from *E. coli* by capture on S-agarose beads as described above. To reduce non-specific binding, 20 μl of in vitro-translated product was mixed with 50 μl of plain S-agarose beads in HND buffer (20 mM HEPES, pH 7.5, 100 mM KCl, 10% glycerol, 0.4% NP40, 1 mM DTT) with 5% BSA. This mixture was incubated at room temperature with shaking for 1 hour. Following incubation, the mixture was centrifuged at 2500 rpm for 5 minutes and the resulting supernatant was divided into two equal aliquots. […]

[4] = target: mouse PERIOD2 (mPER2), in vitro translated, 35S-methionine-labeled (mouse, UniProt O54943 1-1257, limits assumed); assay: in vitro binding, S-agarose-bound recombinant CK1ε with 35S-labeled in vitro translated mPER2
Sequence of mouse PERIOD2 (mPER2), in vitro translated, 35S-methionine-labeled (O54943 whole entry): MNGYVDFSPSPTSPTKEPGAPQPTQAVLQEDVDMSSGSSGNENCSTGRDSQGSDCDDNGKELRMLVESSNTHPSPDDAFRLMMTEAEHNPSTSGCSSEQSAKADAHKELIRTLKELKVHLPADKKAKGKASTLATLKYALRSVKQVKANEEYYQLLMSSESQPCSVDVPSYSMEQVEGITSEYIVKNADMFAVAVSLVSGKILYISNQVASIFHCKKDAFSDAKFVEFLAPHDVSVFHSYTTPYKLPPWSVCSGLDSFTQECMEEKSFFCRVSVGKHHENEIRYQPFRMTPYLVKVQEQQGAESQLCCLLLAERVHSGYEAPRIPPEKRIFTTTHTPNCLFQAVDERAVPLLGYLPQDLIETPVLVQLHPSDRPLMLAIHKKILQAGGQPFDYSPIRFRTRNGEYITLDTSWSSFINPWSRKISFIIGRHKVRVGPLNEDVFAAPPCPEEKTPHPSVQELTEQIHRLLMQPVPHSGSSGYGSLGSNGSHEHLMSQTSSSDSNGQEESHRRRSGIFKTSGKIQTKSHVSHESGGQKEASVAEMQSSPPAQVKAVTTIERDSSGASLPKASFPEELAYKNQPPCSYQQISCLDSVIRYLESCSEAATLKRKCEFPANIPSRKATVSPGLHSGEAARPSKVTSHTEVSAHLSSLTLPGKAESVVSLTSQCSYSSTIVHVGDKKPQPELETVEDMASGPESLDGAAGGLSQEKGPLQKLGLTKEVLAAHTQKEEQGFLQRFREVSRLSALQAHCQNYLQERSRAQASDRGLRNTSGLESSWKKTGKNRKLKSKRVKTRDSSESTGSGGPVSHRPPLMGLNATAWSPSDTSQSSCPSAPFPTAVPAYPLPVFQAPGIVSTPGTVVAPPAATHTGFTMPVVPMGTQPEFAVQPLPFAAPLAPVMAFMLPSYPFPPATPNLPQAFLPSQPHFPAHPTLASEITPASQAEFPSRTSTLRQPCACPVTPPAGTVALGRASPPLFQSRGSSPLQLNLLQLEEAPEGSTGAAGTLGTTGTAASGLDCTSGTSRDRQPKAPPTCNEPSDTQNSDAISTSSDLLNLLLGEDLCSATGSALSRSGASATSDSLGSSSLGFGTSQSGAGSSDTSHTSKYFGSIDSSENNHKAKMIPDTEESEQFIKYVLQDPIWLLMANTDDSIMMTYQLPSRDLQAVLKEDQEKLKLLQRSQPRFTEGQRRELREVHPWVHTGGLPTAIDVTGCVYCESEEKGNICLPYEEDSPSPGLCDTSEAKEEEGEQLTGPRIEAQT
Method: as §2, §3

Binder	binding result [1]	binding result [2]	binding result [3]	binding result [4]
B1	no binding	no binding	–	–
B2	–	–	binds	binds
B3	–	–	binds	binds
